Assay results taken from patent publication US20240132578A1.

Columns and labels:
Test in all cases: cell-based or functional assay
[1] = molecular target: HIV-1 Env of isolate MGRM-C-025 (subtype C), on pseudovirus (HIV-1)
[2] = molecular target: HIV-1 Env of isolate MGRM-G-028 (subtype G) (HIV-1)
[3] = molecular target: HIV-1 Env of isolate MGRM-D-003 (HIV-1)
[4] = molecular target: HIV-1 Env of isolate MGRM-G-009 (subtype G) (HIV-1)
[5] = molecular target: HIV-1 Env of isolate MG RM-A-009 (pseudovirus) (HIV-1)
[6] = molecular target: HIV-1 Env of isolate MG RM-A-014 (pseudovirus) (HIV-1)
[7] = molecular target: HIV-1 Env of isolate 92UG046 (HIV-1)
[8] = molecular target: HIV-1 Env of isolate MGRM-C-023 (subtype C), on pseudovirus (HIV-1)
[9] = molecular target: HIV-1 Env of pseudovirus MGRM-F1-014 (HIV-1)
[10] = molecular target: HIV-1 envelope glycoprotein (Env) of isolate MG RM-AG-003 (HIV-1)
[11] = molecular target: HIV-1 Env of pseudovirus MGRM-D-011 (HIV-1)
[12] = molecular target: HIV-1 Env of isolate MGRM-F1-022 (pseudovirus) (HIV-1)
[13] = molecular target: HIV-1 92UG005 envelope protein (Env) on pseudovirus (HIV-1)
[14] = molecular target: HIV-1 Env of isolate MGRM-F1-013 (pseudovirus) (HIV-1)
[15] = molecular target: HIV-1 JR-CSF Env S334A (HIV-1 isolate JR-CSF) (UniProt P20871)
[16] = molecular target: HIV-1 envelope glycoprotein (Env) of isolate 94UG103, subtype A (HIV-1)
[17] = molecular target: HIV-1 envelope glycoprotein (Env) of isolate MG RM-A-006, subtype A (HIV-1)
[18] = molecular target: HIV-1 envelope glycoprotein (Env) of isolate SC422661.8, on pseudovirus (HIV-1)
[19] = molecular target: HIV-1 envelope glycoprotein (Env) of isolate MGRM-Chronic-B-002, on pseudovirus (HIV-1)
[20] = molecular target: HIV-1 JR-CSF Env S393A (HIV-1 (isolate JR-CSF)) (UniProt P20871)
[21] = molecular target: HIV-1 Env of isolate MGRM-F1-008 (HIV-1)
[22] = molecular target: HIV-1 Env of isolate MGRM-F1-020 (HIV-1)
[23] = molecular target: HIV-1 Env of isolate MGRM-AE-007 (subtype AE) (HIV-1)
[24] = molecular target: HIV-1 Env of isolate 92UG114 (pseudovirus) (HIV-1)
[25] = molecular target: HIV-1 Env of isolate MGRM-A-012 (subtype A) (HIV-1)
[26] = molecular target: HIV-1 Env of isolate MGRM-D-028 (HIV-1)
[27] = molecular target: HIV-1 Env of isolate 92UG046 (pseudovirus) (HIV-1)
[28] = molecular target: HIV-1 Env of isolate MGRM-D-022 (pseudovirus) (HIV-1)
[29] = molecular target: HIV-1 Env of pseudovirus isolate MGRM-C-025 (clade C) (HIV-1)
[30] = molecular target: HIV-1 Env of isolate CAAN.A2 (HIV-1)
[31] = molecular target: HIV-1 Env of pseudovirus isolate MGRM-C-013 (clade C) (HIV-1)
[32] = molecular target: HIV-1 Env of isolate MGRM-F1-013 (HIV-1)

Chain of 4970_K22 (PGT-144) (antibody) (VH): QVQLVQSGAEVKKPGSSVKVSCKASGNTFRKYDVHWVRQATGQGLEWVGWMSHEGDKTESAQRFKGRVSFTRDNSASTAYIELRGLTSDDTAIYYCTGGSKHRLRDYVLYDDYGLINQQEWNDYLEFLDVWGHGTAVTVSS
Chain of 4970_K22 (PGT-144) (antibody) (VL): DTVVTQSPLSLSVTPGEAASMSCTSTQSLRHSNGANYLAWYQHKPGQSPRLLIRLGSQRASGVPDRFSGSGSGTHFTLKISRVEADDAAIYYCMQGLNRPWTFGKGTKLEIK
Chain of 4995_E20 (PGT-142) (antibody) (VH): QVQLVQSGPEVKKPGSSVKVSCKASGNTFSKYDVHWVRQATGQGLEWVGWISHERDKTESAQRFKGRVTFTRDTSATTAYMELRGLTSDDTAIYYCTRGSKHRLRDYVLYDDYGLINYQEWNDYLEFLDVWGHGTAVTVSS
Chain of 4995_E20 (PGT-142) (antibody) (VL): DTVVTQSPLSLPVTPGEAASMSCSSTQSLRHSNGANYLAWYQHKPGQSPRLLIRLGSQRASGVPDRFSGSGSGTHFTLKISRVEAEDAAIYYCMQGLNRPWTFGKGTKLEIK
Chain of 5345_I01 (PGT-137) (antibody) (VH): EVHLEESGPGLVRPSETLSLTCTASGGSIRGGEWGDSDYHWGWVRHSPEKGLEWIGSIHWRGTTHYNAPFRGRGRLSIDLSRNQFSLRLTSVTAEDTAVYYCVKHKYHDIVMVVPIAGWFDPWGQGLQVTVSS
Chain of 5345_I01 (PGT-137) (antibody) (VL): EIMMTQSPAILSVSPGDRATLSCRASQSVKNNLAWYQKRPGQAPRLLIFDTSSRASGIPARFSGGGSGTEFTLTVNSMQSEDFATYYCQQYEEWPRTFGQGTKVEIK
Chain of 5329_C19 (PGT-136) (antibody) (VH): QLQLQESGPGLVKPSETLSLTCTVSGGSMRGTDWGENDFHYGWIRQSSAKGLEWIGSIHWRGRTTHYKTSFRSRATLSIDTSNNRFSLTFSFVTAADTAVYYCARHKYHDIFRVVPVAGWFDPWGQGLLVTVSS
Chain of 5329_C19 (PGT-136) (antibody) (VL): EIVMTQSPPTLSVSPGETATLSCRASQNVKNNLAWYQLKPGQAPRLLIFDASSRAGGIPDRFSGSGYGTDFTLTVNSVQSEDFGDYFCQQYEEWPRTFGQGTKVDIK
Chain of PGT-141 (4964_G22; 4993_K13) (antibody) (VH): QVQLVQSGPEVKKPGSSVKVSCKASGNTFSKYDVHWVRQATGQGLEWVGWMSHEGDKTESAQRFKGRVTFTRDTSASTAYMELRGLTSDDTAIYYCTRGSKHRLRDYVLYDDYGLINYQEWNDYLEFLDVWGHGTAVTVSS
Chain of PGT-145 (4995_P16) (antibody) (VH): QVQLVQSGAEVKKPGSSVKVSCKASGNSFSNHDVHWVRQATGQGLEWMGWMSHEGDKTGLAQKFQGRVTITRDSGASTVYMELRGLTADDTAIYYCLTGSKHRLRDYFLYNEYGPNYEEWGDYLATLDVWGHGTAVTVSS
Chain of PGT-145 (4995_P16) (antibody) (VL): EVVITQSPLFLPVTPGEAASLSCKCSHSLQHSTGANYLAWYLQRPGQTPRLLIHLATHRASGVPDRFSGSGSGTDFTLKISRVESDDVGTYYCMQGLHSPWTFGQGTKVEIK

4995_P16 (PGT-145) (antibody)
IC50, single-round pseudovirus neutralization [1]: 0.044 µg/mL
IC50 (µg/mL), pseudovirus neutralization [2]: 0.046 µg/mL
IC50 (µg/mL), pseudovirus neutralization [3]: 0.006 µg/mL
IC50 (µg/mL), pseudovirus neutralization [4]: 0.982 µg/mL
IC50 (µg/mL), single-round pseudovirus neutralization [5]: 0.235 µg/mL
IC50 (µg/mL), single-round pseudovirus neutralization [6]: 1.36 µg/mL
IC50 (µg/mL), pseudovirus neutralization [7]: > 50 µg/mL
IC50, single-round pseudovirus neutralization [8]: 0.201 µg/mL

PGT-141 (4964_G22; 4993_K13) (antibody)
IC50, pseudovirus neutralization [9]: 0.001 µg/mL
IC50 [10]: > 50 µg/mL
IC50, pseudovirus neutralization [11]: > 50 µg/mL

5123_A06 (PGT-125) (antibody)
IC50 (µg/mL), pseudovirus neutralization [12]: > 50 µg/mL
IC50 (ug/mL), pseudovirus neutralization [13]: > 10 µg/mL
IC50 (µg/mL), pseudovirus neutralization [14]: > 50 µg/mL
Fold IC50 increase relative to wild-type [15]: 0.8 fold
IC50, pseudovirus neutralization [16]: 0.008 µg/mL
IC50, pseudovirus neutralization [17]: > 50 µg/mL
IC50, pseudovirus neutralization [18]: 30.1 µg/mL
IC50, pseudovirus neutralization [19]: 0.064 µg/mL
Fold IC50 increase relative to wild-type (pseudovirus neutralization) [20]: 0.5 fold

4970_K22 (PGT-144) (antibody)
IC50, single-round pseudovirus neutralization [1]: 17.6 µg/mL
IC50 (µg/mL), pseudovirus neutralization [2]: > 50 µg/mL
IC50 (µg/mL), pseudovirus neutralization [3]: > 50 µg/mL
IC50 (µg/mL), pseudovirus neutralization [4]: > 50 µg/mL
IC50 (µg/mL), single-round pseudovirus neutralization [5]: 2.83 µg/mL
IC50 (µg/mL), single-round pseudovirus neutralization [6]: > 50 µg/mL
IC50 (µg/mL), pseudovirus neutralization [7]: > 50 µg/mL
IC50, single-round pseudovirus neutralization [8]: 0.38 µg/mL

5345_I01 (PGT-137) (antibody)
IC50 (µg/mL), pseudovirus neutralization [21]: > 50 µg/mL
IC50 (µg/mL), pseudovirus neutralization [22]: 1.93 µg/mL
IC50, pseudovirus neutralization [23]: > 50 µg/mL
IC50 (µg/mL), pseudovirus neutralization [24]: > 50 µg/mL
IC50, pseudovirus neutralization [25]: > 50 µg/mL
IC50 (µg/mL), pseudovirus neutralization [26]: > 50 µg/mL
IC50 (µg/mL), pseudovirus neutralization [27]: > 50 µg/mL
IC50 (µg/mL), pseudovirus neutralization [28]: > 50 µg/mL
IC50, pseudovirus neutralization [29]: > 50 µg/mL
IC50 (µg/mL), pseudovirus neutralization [30]: > 50 µg/mL
IC50, pseudovirus neutralization [31]: > 50 µg/mL
IC50 (µg/mL), pseudovirus neutralization [32]: > 50 µg/mL

PGT-142 (4995_E20) (antibody)
IC50, pseudovirus neutralization [9]: 0.001 µg/mL
IC50 [10]: > 50 µg/mL
IC50, pseudovirus neutralization [11]: > 50 µg/mL

5329_C19 (PGT-136) (antibody)
IC50 (µg/mL), pseudovirus neutralization [21]: > 50 µg/mL
IC50 (ug/mL), pseudovirus neutralization [13]: > 10 µg/mL
IC50 (µg/mL), pseudovirus neutralization [22]: 9.31 µg/mL
IC50, pseudovirus neutralization [23]: > 50 µg/mL
IC50 (µg/mL), pseudovirus neutralization [24]: > 50 µg/mL
IC50, pseudovirus neutralization [25]: > 50 µg/mL
IC50 (µg/mL), pseudovirus neutralization [26]: > 50 µg/mL
IC50 (µg/mL), pseudovirus neutralization [27]: > 50 µg/mL
IC50 (µg/mL), pseudovirus neutralization [28]: > 50 µg/mL
IC50, pseudovirus neutralization [29]: > 50 µg/mL
IC50 (µg/mL), pseudovirus neutralization [30]: > 50 µg/mL
IC50, pseudovirus neutralization [31]: > 50 µg/mL
IC50 (µg/mL), pseudovirus neutralization [32]: > 50 µg/mL

4877_D15 (PGT-122) (antibody)
IC50 (µg/mL), pseudovirus neutralization [12]: 0.277 µg/mL
IC50 (ug/mL), pseudovirus neutralization [13]: > 10 µg/mL
IC50 (µg/mL), pseudovirus neutralization [14]: 0.152 µg/mL
IC50, pseudovirus neutralization [16]: 2.04 µg/mL
IC50, pseudovirus neutralization [17]: > 50 µg/mL
IC50, pseudovirus neutralization [18]: 0.103 µg/mL
IC50, pseudovirus neutralization [19]: 1.8 µg/mL

PGT-145 (4995_P16) (antibody)
IC50, pseudovirus neutralization [9]: 0.009 µg/mL
IC50 [10]: > 50 µg/mL
IC50, pseudovirus neutralization [11]: 14.7 µg/mL

4995_E20 (PGT-142) (antibody)
IC50, single-round pseudovirus neutralization [1]: 0.183 µg/mL
IC50 (µg/mL), pseudovirus neutralization [2]: 30.3 µg/mL
IC50 (µg/mL), pseudovirus neutralization [3]: > 50 µg/mL
IC50 (µg/mL), pseudovirus neutralization [4]: 2.81 µg/mL
IC50 (µg/mL), single-round pseudovirus neutralization [5]: 0.058 µg/mL
IC50 (µg/mL), single-round pseudovirus neutralization [6]: 0.367 µg/mL
IC50 (µg/mL), pseudovirus neutralization [7]: > 50 µg/mL
IC50, single-round pseudovirus neutralization [8]: 0.087 µg/mL
